From PMC10168401 (bioRxiv, 2023)

B1: CC25.4 Fab with the VSRRLP elbow variant (for crystallization) (Fab, V domains shown)
VH: QVQLVQSGAEVKKPGASVKVSCKASGYTFTDYFLHWVRQAPGQGLEWMGWINPDSGGTNYAQRFQGRVTMTRDTSISTAYMEVSRLRSDDTAVYYCARDNERYQMQNYYHYYGMDVWGQGTTVTVVS
VL: not shown
B2: CC25.56 Fab with the […] elbow variant (for crystallization) (Fab, V domains shown)
VH: EVQLVQSGAEVKKPGESLKISCKGSGYTFTRHWIGWVRQMPGKGLEWMGVIYPGDSDTRYSPSFQGQVTVSADKSISTAYLQWSSLKASDTAMYFCARGGIAVASGAFDIWGQGTMVTVFN
VL: QSALTQPPSVSVAPGKTARITCGGNNIGSKSVHWYQQKAGQAPVVVIYYPSDRPSGIPERFSGSNSENTATLTISGVEAGDEADYYCQLWDTNSDHWVFGGGTKLTVL
B3: CC25.43 Fab with the […] elbow mutation and a shortened kappa FG loop (for crystallization) (Fab, V domains shown)
VH: EVQLVESGGGLVQPGGSLKLSCSASGFTLSDSAMHWVRQASGKGLEWVGRISSNVNNDATVYAASLKGRFTISRDESKNMAYLQMNSLKNEDTAVYYCTVVPVLEYYQYGMDVWGQGTTVTIFN
VL: DIQLTQSPSTLSASVGDRVIITCRASQSISTWLAWYQQRPGQAPKLLIYKASILQSGVPPRFSGSGSGTDFTLTISRLQPDDFATYYCQQYDSDSQPLTFGGGTKLEIK

Target: SARS-CoV-2 spike receptor-binding domain (RBD), wild type, residues 333-529 (SARS-CoV-2 Wuhan-Hu-1 (wild type), UniProt P0DTC2)
Assay: crystal structure

Binder | binding result
B1 | binds
B2 | binds
B3 | binds
